Key:
[1] = target: T1, recombinant PP1cα (rPP1cα) (Homo sapiens, UniProt P62136); test: Microscale thermophoresis (MST); type: binding; settings: rPP1cα 2 µM, peptide 9.16 nM-300 µM, 25 mM Tris/HCl, 100 mM NaCl, 1 mM DTT, 0.1% PEG 8000, pH 8.0; intrinsic fluorescence, Monolith NT.LabelFree
T1 construct: made in house; host or cells: E. coli
Description: The interaction of P-Thr696-MYPT1^690−701 and the recombinant PP1cα (rPP1cα) was studied by Monolith^TM NT.LabelFree (MST power: 40%; LED Power: 10%) instrument (NanoTemper Technologies GmbH, Munich, Germany). A 16-point two-fold P-Thr696-MYPT1^690−701 peptide dilution series was generated (9.16 nM-300 µM) in 25 mM Tris/HCl, 100 mM NaCl, 1 mM DTT, 0.1% PEG 8000, pH 8.0 and mixed with rPP1cα (2 µM). The mixtures were loaded into NT.LabelFree standard capillaries. The capillaries on the capillary tray were scanned and intrinsic fluorescence change of rPP1cα upon ligand binding was recorded. The data were analyzed by MO.Affinity Analysis v2.3 software.

[2] = test system: native catalytic subunit of PP1 (PP1c); test: Phosphatase assay of native PP1c with ^32P-MLC20 substrate; type: biochemical, rabbit skeletal muscle; settings: PP1c 1.5–2.2 nM, 1 µM ^32P-MLC20, pH 7.4, 30 °C; n = 4
Description: Figure 2 Effects of a phosphorylated peptide from MYPT1 on the activity of PP1c, PP2Ac and myosin phosphatase holoenzyme (Flag-MYPT1-PP1c). (A): The native catalytic subunit of PP1 (PP1c; ▼,●) or PP2A (PP2Ac; ∆) purified from rabbit skeletal muscle or Flag-MYPT1-PP1c overexpressed and isolated from tsa201 cells (○) was assayed in the presence of dephosphorylated (▼) or phosphorylated (○,●,∆) MYPT1 peptide of R^690QSRRS(pT696)QGVTL^701 (P-Thr696-MYPT1^690−701) with ^32P-MLC20 substrate as described in Section 4. Values are mean ± SD (n = 4). Phosphatase activity in the absence of peptide was taken 100%. (B): Interaction of recombinant PP1cα with the phosphorylated peptide assessed by microscale thermophoresis (MST) or (C): with isotherm titration calorimetry (ITC) as described in Section 4. […] Only the axis text 'MYPT1^690-701 peptides' names the substance, and no target is printed. / Panel C: the picture prints no substance label for the ITC parameters.
The ^32Pi released from ^32P-MLC20 substrate were determined as previously described. The assay (80 µL) to determine the half-life of dephoshorylation for ^32P-MLC20 (10 µM) in the presence of various concentration of P-Thr696-MYPT1^690−701 (10–500 µM) was carried out in a similar fashion except that 5 µL aliquots were removed from the reaction mixture at different intervals for radioactivity measurements.

[3] = target: T1, recombinant PP1cα (rPP1cα); test: Isothermal titration calorimetry (ITC); type: binding; settings: rPP1cα 0.5–2 µM, peptide 5–20 µM, 25 mM Tris/HCl (pH 8.0), 150 mM NaCl, 1 mM TCEP, 25 °C; one set of site model
Description: Isothermal titration calorimetry (ITC) experiments were carried out with MicroCal ITC200 instrument. rPP1cα was dialyzed in 25 mM Tris/HCl (pH 8.0), 150 mM NaCl, 1 mM TCEP (assay buffer) for 3 h first, then 16 h with a fresh batch of solution. Prior to measurements, rPP1cα (0.5–2 µM) was transferred into the sample cell of the calorimeter while the reference cell was filled with the assay buffer. P-Thr696-MYPT1^690−701 (5–20 µM) in the assay was applied to the syringe and 2 µL aliquot (19 times) was injected into the cell at a stirring rate of 300 rpm at 25 °C. The reference power was 5 µcal/s. The titration data were analyzed with MicroCal ITC-Origin software using one set of site model to obtain binding parameters of protein–ligand interaction.

T1 sequence (P62136 whole entry): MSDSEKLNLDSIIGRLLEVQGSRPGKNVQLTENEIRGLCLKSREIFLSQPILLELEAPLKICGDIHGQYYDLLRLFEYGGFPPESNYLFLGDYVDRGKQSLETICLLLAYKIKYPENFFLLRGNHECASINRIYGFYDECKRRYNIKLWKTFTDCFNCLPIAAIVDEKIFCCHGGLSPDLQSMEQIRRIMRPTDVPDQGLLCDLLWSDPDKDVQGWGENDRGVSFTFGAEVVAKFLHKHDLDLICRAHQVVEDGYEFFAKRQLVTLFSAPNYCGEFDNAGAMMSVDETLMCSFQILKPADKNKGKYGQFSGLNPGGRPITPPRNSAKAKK

effect on PP1c activity [2]: without effect
Substance: MYPT1^690−701: synthesized MYPT1 peptide, non-phosphorylated (RQSRRSTQGVTL; UniProt O14974 690-701, looked up, fragment)
KD by MST [1]: no MST or ITC signals suitable for quantitative evaluation were obtained
KD by ITC [3]: no MST or ITC signals suitable for quantitative evaluation were obtained

— PMC10003451, “Phosphorylated Peptide Derived from the Myosin Phosphatase Target Subunit Is a Novel Inhibitor of Protein Phosphatase-1” (International Journal of Molecular Sciences, 2023)
